The target in series [1] is T1, 1α PASB (HIF-1α PASB domain, 238-349) (UniProt Q16665 238-349, labelled with NT-647-NHS dye in MST).
T1 construct: range 238-349; not shown: His6 tag of vector pET28, then Met
As to the kind of experiment: MST, HIF-1α PASB domain.

Series [2] concerns the target T2, Trx-1α (thioredoxin-tagged HIF-1α 1-350, bHLH-PASA-PASB) (UniProt Q16665 1-350).
T2 construct: range 1-350; not shown: Thioredoxin-His6 tag of vector pET32
The experiment in a line: competition ELISA: His-tagged Trx-1α on Ni plate, peptide titrated, binding of GST-1β (blocked partner) detected with anti-GST, A450. Here is the method:
(§1) IC₅₀ values for the compound=3.7 μM/8.8 μM for 1α/2α.
(§2) 25 μL of His-tagged HIF-α protein (either Trx-1α, Trx-2α, 1α PASB, or 2α PASB) at 0.1 μM in HIF assay buffer were added to individual wells of a Pierce Ni²⁺-coated 96-well plate (Thermo) in triplicate. The plate was rocked gently at room temperature for 1 hr, before washing with 3×200 μL assay buffer (5 min incubation per wash). 25 μL of compounds and/or DMSO at the stated concentrations were added to the plate and allowed to equilibrate for 30 min prior to the addition of 25 μL of GST-1β at 0.2 μM in assay buffer for 1 hr. For conditions in which no compound or DMSO were used, GST-1β was added as a 0.1 μM solution. After incubation with GST-1β, the wells were washed with 3×200 μL assay buffer then 1×200 μL PBS. The wells were then incubated with 100 μL mouse α-GST antibody (Thermo, MS-707-P) at a 1/1000 dilution in PBS supplemented with 0.1% Tween-20 (PBST) and 2% non-fat powdered milk (Marvel) for 1 hr, followed by 3×200 μL washed with PBS. 100 μL of secondary HRP-conjugated α-mouse antibody (GE Healthcare) was added at a 1/6000 dilution in 2% milk/PBST for 1 hr, then washed with 3×200 μL PBS. […] Absorbance was read at 450 nm using a Tecan Infinite M200 Pro plate reader. Data were fitted and IC₅₀ values determined by non-linear regression using GraphPad Prism 6.

In series [3] the target is T1, 1α PASB (HIF-1α PASB domain, 238-349). The experiment in a line: MST, peptide titrated into fluorescently labelled 1α PASB. Here is the method:
(§3) Microscale thermophoresis (MST) was performed to determine Kd of peptide binding to fluorescently labelled HIF-1α/2α PASB domains.
(§4) 0.5 mL of 1α or 2α PASB protein stocks in HIF storage/assay buffer were dialysed against 1 L of MST labelling buffer (100 mM NaHCO₃ pH 8, 150 mM NaCl and 5% glycerol) for 1.5 hr at 4° C., then against 1 L of fresh labelling buffer at 4° C. overnight. 100 μL of each dialysed protein diluted to 10 μM were incubated with 100 μL of 30 μM NT-647-NHS dye (NanoTemper protein labelling kit) for 20 min in the dark, then exchanged into 650 μL HIF assay buffer supplemented with 0.05% Tween-20 using the supplied gravity flow purification columns. A dilution series of cyclo-CRVIIF (SEQ ID NO 4) or alanine scan analogues (in HIF assay buffer, 10% DMSO) was mixed with equal volumes of labelled 1α PASB or 2α PASB at 100 nM and allowed to equilibrate for 10 min. Samples were loaded into hydrophilic capillaries and, after optimising the power, MST was performed using a Monolith […] instrument (NanoTemper). Data were analysed using NT Analysis Software using the Temperature Jump analysis mode.

In series [4] the target is T3, Trx-2α (thioredoxin-tagged HIF-2α 1-360, bHLH-PASA-PASB) (UniProt Q99814 1-360).
T3 construct: range 1-360; not shown: Thioredoxin-His6 tag of vector pET32
T3 sequence (Q99814 1-360): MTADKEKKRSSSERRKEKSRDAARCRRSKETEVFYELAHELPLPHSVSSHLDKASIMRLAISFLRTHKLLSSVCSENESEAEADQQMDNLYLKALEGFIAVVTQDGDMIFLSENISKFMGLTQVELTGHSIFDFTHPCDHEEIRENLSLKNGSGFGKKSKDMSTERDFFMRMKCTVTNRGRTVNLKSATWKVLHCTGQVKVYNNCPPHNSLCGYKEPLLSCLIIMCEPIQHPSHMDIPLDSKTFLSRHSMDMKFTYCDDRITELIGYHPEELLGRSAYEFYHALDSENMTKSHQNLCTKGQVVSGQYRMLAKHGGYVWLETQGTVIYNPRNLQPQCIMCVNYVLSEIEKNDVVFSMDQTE
The experiment in a line: competition ELISA: His-tagged Trx-2α on Ni plate, peptide titrated, binding of GST-1β (blocked partner) detected with anti-GST, A450. Here is the method: as §1, §2

Series [5] addresses T4, 2α PASB (HIF-2α PASB domain, 240-350) (UniProt Q99814 240-350, labelled with NT-647-NHS dye in MST; 15N (and 13C 15N) labelled in NMR).
T4 construct: range 240-350; also called PAS B domain of HIF-2α; not shown: His6 tag of vector pET28, then Met
As to the kind of experiment: thermal shift assay, 1 mM peptide. Here is the method: (§5) Thermal denaturation of HIF proteins was performed in 20 μL reactions in triplicate using a Bio-Rad CFX Connect Real-Time System. Proteins were used at either 5 μM (Trx-1α, Trx-2α and GST-1β) or 15 μM (His-tagged PASB domains) in HIF assay buffer, with 10 mM DTT and SYPRO orange dye (Life Technologies) at a final concentration of 8×(relative to 5000×stock), and supplemented with either DMSO or compound dissolved in DMSO at the stated concentrations. The reaction plate was assembled on ice, then transferred to the pre-chilled thermal cycler, held at 10° C. for 5 min (heated lid, 105° C.), then the temperature ramped to 95° C. Fluorescence was recorded at 0.5° C. increments, holding for 5 sec at each temperature. Data were plotted using GraphPad Prism 6, and melting temperatures calculated using the first derivative method in which the peak (i.e. the steepest transition between data points) represents the point at which 50% of the protein sample is denatured. Errors are quoted as the inherent error associated with the first derivative of the data, i.e. ±0.25° C. for Tₘ values and ±0.5° C. for ΔTₘ values.

Series [6] has as its target T1, 1α PASB (HIF-1α PASB domain, 238-349). The experiment in a line: thermal shift assay, 1 mM peptide. Here is the method: as §5
The target of series [7] is T2, Trx-1α (thioredoxin-tagged HIF-1α …). As to the kind of experiment: thermal shift assay, 1 mM peptide. Here is the method: as §5
In series [8] the target is T3, Trx-2α (thioredoxin-tagged HIF-2α …). The experiment in a line: thermal shift assay, 1 mM peptide. Here is the method: as §5
Series [9] addresses T5, 1β PASB (HIF-1β PASB domain, 356-474) (UniProt P27540 356-474).
T5 construct: range 356-474; not shown: His6 tag of vector pET28
The experiment in a line: thermal shift assay, 1 mM peptide. Here is the method:
as §5

The target of series [10] is T4, 2α PASB (HIF-2α PASB domain, 240-350). The experiment in a line: MST, HIF-2α PASB domain.
For series [11], the target named is T6, HIF-1α (construct not given) (UniProt Q16665 1-350, limits assumed).
T6 construct: also called HIF-1 ELISA
As to the kind of experiment: HIF-1 ELISA, inhibition of HIF-1α/HIF-1β dimerisation. Here is the method: (§6) 25 μL of His-tagged HIF-α protein (either Trx-1α, Trx-2α, 1α PASB, or 2α PASB) at 0.1 μM in HIF assay buffer were added to individual wells of a Pierce Ni²⁺-coated 96-well plate (Thermo) in triplicate. The plate was rocked gently at room temperature for 1 hr, before washing with 3×200 μL assay buffer (5 min incubation per wash). 25 μL of compounds and/or DMSO at the stated concentrations were added to the plate and allowed to equilibrate for 30 min prior to the addition of 25 μL of GST-1β at 0.2 μM in assay buffer for 1 hr. For conditions in which no compound or DMSO were used, GST-1β was added as a 0.1 μM solution. After incubation with GST-1β, the wells were washed with 3×200 μL assay buffer then 1×200 μL PBS. The wells were then incubated with 100 μL mouse α-GST antibody (Thermo, MS-707-P) at a 1/1000 dilution in PBS supplemented with 0.1% Tween-20 (PBST) and 2% non-fat powdered milk (Marvel) for 1 hr, followed by 3×200 μL washed with PBS. 100 μL of secondary HRP-conjugated α-mouse antibody (GE Healthcare) was added at a 1/6000 dilution in 2% milk/PBST for 1 hr, then washed with 3×200 μL PBS. Wells were incubated with 100 μL of 1-Step Ultra TMB-ELISA solution (Thermo) until a blue colour developed (typically 10-15 min) and the reaction was stopped by the addition of 100 μL of a ⅕ dilution of conc. H₂SO₄, which turned the solution yellow. Absorbance was read at 450 nm using a Tecan Infinite M200 Pro plate reader. Data were fitted and IC₅₀ values determined by non-linear regression using GraphPad Prism 6.

Series [12] deals with T7, HIF-2α (construct not given) (UniProt Q99814 1-360, limits assumed).
T7 construct: also called HIF-2 ELISA
T7 sequence (Q99814 1-360 limits assumed): as the sequence (Q99814 1-360) above
The experiment in a line: HIF-2 ELISA, inhibition of HIF-2α/HIF-1β dimerisation. Here is the method:
as §6

Series [13] concerns the target T4, 2α PASB (HIF-2α PASB domain, 240-350). The experiment in a line: MST, peptide titrated into fluorescently labelled 2α PASB. Here is the method:
as §3, §4

For series [14] the target is unchanged. The experiment in a line: ELISA, 2α PASB on Ni plate, inhibition of GST-1β binding. Here is the method:
(§7) ELISA assays were conducted using 1α/2α PASB domains.
as §2

The target in series [15] is T1, 1α PASB (HIF-1α PASB domain, 238-349). As to the kind of experiment: ELISA, 1α PASB on Ni plate, inhibition of GST-1β binding. Here is the method:
as §7, §2

Series [16] has the same target. As to the kind of experiment: competition ELISA: 1α PASB on Ni plate, peptide titrated, blocked partner GST-1β; the value stands in the panel without a name, the ELISA fits give IC50; the fall is only partial. Here is the method: as §2
Series [17] addresses T4, 2α PASB (HIF-2α PASB domain, 240-350). As to the kind of experiment: competition ELISA: 2α PASB on Ni plate, peptide titrated, blocked partner GST-1β; the value stands in the panel without a name, the ELISA fits give IC50; the fall is only partial. Here is the method: as §2
For series [18], the target named is T1, 1α PASB (HIF-1α PASB domain, 238-349). As to the kind of experiment: competition ELISA: 1α PASB on Ni plate, peptide titrated, blocked partner GST-1β; the value stands in the panel without a name, the ELISA fits give IC50. Here is the method: as §2
Series [19] has as its target T4, 2α PASB (HIF-2α PASB domain, 240-350). As to the kind of experiment: competition ELISA: 2α PASB on Ni plate, peptide titrated, blocked partner GST-1β; the value stands in the panel without a name, the ELISA fits give IC50. Here is the method:
as §2

For series [20], the target named is T3, Trx-2α (thioredoxin-tagged HIF-2α …). The experiment in a line: ELISA, Trx-2α on Ni plate, inhibition of GST-1β binding. Here is the method:
as §1, §2

Series [21] deals with T2, Trx-1α (thioredoxin-tagged HIF-1α …). The experiment in a line: ELISA, Trx-1α on Ni plate, inhibition of GST-1β binding. Here is the method:
as §1, §2

T4 sequence (Q99814 240-350): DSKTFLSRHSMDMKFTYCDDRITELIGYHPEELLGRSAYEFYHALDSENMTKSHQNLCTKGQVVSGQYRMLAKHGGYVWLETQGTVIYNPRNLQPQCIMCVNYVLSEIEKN
T5 sequence (P27540 356-474): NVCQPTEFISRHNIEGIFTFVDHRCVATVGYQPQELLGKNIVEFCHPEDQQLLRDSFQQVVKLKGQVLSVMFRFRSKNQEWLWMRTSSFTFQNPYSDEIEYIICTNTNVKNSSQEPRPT

B1: cyclo-CRLLIF (SEQ ID NO 3) (peptide)
peptide: CRLLIF
modifications: cyclic peptide (cyclo-, first amino acid joined to the last)
notes: One of the 4 cyclic peptide hits of the SICLOPPS screen; made by solid phase synthesis; also called CRLLIX where X = F
As for B1, the Kd in [1] worked out at 36.9 µM; in [3] it was 13.5 µM; in [10], 15.4 µM; in [13], 59.6 µM. Also, the IC50 was found to be 102 µM in series [2], 186 µM in [4], 71.3 µM in [11] and 98.3 µM in series [12]. Besides, the ΔTm was -4 ° C in series [5]; -2 ° C in series [6]; 0.5 ° C in series [7]; -4 ° C in series [8]; -1 ° C in series [9].
Consider CRVIIF (cyclic peptide (cyclo-, first amino acid joined to the last), also called Compound C) [cyclo-CRVIIF (SEQ ID NO 4)], for which the IC50 in [2] was found to be 115 µM; in series [4], 244 µM; in [14] it was 15.2 µM; in series [15], 5.4 µM. Besides, the Kd in series [3] stood at 158 µM; in series [13], 133 µM. Moreover, the ΔTm in series [5] was -2.5 ° C; in series [6], -1.5 ° C; in series [7], -1 ° C; in series [8] it was -2 ° C; in [9], -0.5 ° C.

B2: CRVIIA (peptide)
peptide: CRVIIA
notes: also called alanine scan peptide of CRVIIF, position 6 (F to A)
Take B2: the values for the IC50 in series [16] and in series [17] were 110 µM and 37.1 µM, respectively.

B3: CRAIIF (peptide)
peptide: CRAIIF
notes: also called alanine scan peptide of CRVIIF, position 3 (V to A)
The molecule B3 came in with an IC50 in [16] of 51 µM.

B4: CAVIIF (peptide)
peptide: CAVIIF
notes: also called alanine scan peptide of CRVIIF, position 2 (R to A)
In the case of B4, the concentration for half-maximal inhibition (IC50) in series [18] turned out to be 112 µM; in [19], 22.3 µM.
For the molecule CKLIIF (cyclic peptide (first amino acid joined to the last)) [cyclo-CKLIIF (SEQ ID NO 2)], the Kd in [3] came to 2.5 µM; in [13] it was 4.6 µM. Also, the ΔTm was -2.5 ° C in series [5]; -1 ° C in series [6]; -1.5 ° C in [7]; -2.5 ° C in series [8]; -0.5 ° C in series [9]. Besides, the IC50 in series [20] is 8.8 µM; in [21] it was 3.7 µM.

The record behind these values is patent US20190033318A1 (UNIVERSITY OF SOUTHAMPTON, published 2019).
